The text below walks through data of article PMC11371640, “Structural deficits in key domains of Shank2 lead to alterations in postsynaptic nanoclusters and to a neurodevelopmental disorder in humans” (Molecular Psychiatry, 2022).

Where a chain is given by its changes, count along the chain named. Names and notes keep the numbering of the source. Values joined by “and” are separate entries in the source; they are usually repeats but may differ in a detail not shown here. Identical values can stand only once. A value given as a limit tells only on which side of the number the result lay.

The target of data set [1] is T1, His6-SUMO-tagged SH3 to PDZ domains of Shank2 (R520-D727), S610Y ( (human or rat cDNA cloned), UniProt Q9UPX8-3 520-727, S610Y).
T1 sequence: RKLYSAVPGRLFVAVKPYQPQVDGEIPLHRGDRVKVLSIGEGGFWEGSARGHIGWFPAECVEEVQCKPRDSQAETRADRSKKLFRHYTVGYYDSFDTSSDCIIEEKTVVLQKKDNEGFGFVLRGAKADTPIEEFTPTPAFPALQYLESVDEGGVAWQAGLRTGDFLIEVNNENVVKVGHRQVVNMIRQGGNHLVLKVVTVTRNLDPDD
The experiment in a line: ITC.

The target in data set [2] is T2, His6-SUMO-tagged SH3 to PDZ domains of Shank2 (R520-D727), N690S ( (human or rat cDNA cloned), UniProt Q9UPX8-3 520-727, N690S).
T2 sequence: T1 sequence with Y91S, N171S
The experiment in a line: ITC. A general note: Isothermal titration calorimetry measures the heat released or taken up as one component is titrated into another.

Data set [3] deals with T3, His6-SUMO-tagged SH3 to PDZ domains of Shank2 (R520-D727), WT ( (human or rat cDNA cloned), UniProt Q9UPX8-3 520-727).
T3 chain: T1 sequence with Y91S
The experiment in a line: ITC.

The target of data set [4] is T4, His6-SUMO-tagged SH3 to PDZ domains of Shank2 (R520-D727), G643R ( (human or rat cDNA cloned), UniProt Q9UPX8-3 520-727, G643R).
T4 sequence: T1 sequence with Y91S, G124R
The experiment in a line: ITC.

Data set [5] concerns the target T5, His6-SUMO-tagged SH3 to PDZ domains of Shank2 (R520-D727), V717F ( (human or rat cDNA cloned), UniProt Q9UPX8-3 520-727, V717F).
T5 sequence: T1 sequence with Y91S, V198F
The experiment in a line: ITC.

Data set [6] concerns the target T6, His6-SUMO-tagged SH3 to PDZ domains of Shank2 (R520-D727), G643R ( (human or rat cDNA cloned), UniProt Q9UPX8-3 520-727, G643R).
T6 construct: Shank2, SH3 to PDZ domains, residues R520-D727, patient variant G643R; numbers count on: NM_012309.5 (isoform of 1849 residues); also called G643R mutant Shank2; G643R variant; source: E. coli BL21(DE3), purified (Ni-NTA agarose, G-25); not shown: His6, N-terminal, kept; SUMO, N-terminal, kept
T6 sequence (looked up): T1 sequence with Y91S, G124R
Put plainly: ITC; peptide in the syringe (200 µM; 1 mM for G643R), His6-SUMO SH3-PDZ protein in the cell (20-30 µM); 25 °C; 50 mM Tris-HCl pH 8.0, 100 mM NaCl, 1 mM EDTA; 1:1 binding model. Conditions: both partners purified.

Data set [7] deals with T7, His6-SUMO-tagged SH3 to PDZ domains of Shank2 (R520-D727), V717F ( (human or rat cDNA cloned), UniProt Q9UPX8-3 520-727, V717F).
T7 construct: Shank2, SH3 to PDZ domains, residues R520-D727, patient variant V717F; numbers count on: NM_012309.5 (isoform of 1849 residues); source: E. coli BL21(DE3), purified (Ni-NTA agarose, G-25); not shown: His6, N-terminal, kept; SUMO, N-terminal, kept
T7 sequence (looked up): T1 sequence with Y91S, V198F
Described as above. To be noted: both partners purified.

Data set [8] concerns the target T8, His6-SUMO-tagged SH3 to PDZ domains of Shank2 (R520-D727), S610Y ( (human or rat cDNA cloned), UniProt Q9UPX8-3 520-727, S610Y).
T8 construct: Shank2, SH3 to PDZ domains, residues R520-D727, patient variant S610Y; numbers count on: NM_012309.5 (isoform of 1849 residues); source: E. coli BL21(DE3), purified (Ni-NTA agarose, G-25); not shown: His6, N-terminal, kept; SUMO, N-terminal, kept
T8 sequence (looked up): T1 sequence
The data set is described as above. To be noted: both partners purified.

The target of data set [9] is T9, His6-SUMO-tagged SH3 to PDZ domains of Shank2 (R520-D727), WT ( (human or rat cDNA cloned), UniProt Q9UPX8-3 520-727).
T9 construct: Shank2, SH3 to PDZ domains, residues R520-D727; numbers count on: NM_012309.5 (isoform of 1849 residues); Cloned into pET-SUMO; also called His6-SUMO-SH3-PDZ fusion; Shank2 WT; source: E. coli BL21(DE3), purified (Ni-NTA agarose, G-25); not shown: His6, N-terminal, kept; SUMO, N-terminal, kept
T9 sequence (looked up): T1 sequence with Y91S
Described as above. To be noted: both partners purified.

Data set [10] addresses T10, His6-SUMO-tagged SH3 to PDZ domains of Shank2 (R520-D727), N690S ( (human or rat cDNA cloned), UniProt Q9UPX8-3 520-727, N690S).
T10 construct: Shank2, SH3 to PDZ domains, residues R520-D727, patient variant N690S; numbers count on: NM_012309.5 (isoform of 1849 residues); source: E. coli BL21(DE3), purified (Ni-NTA agarose, G-25); not shown: His6, N-terminal, kept; SUMO, N-terminal, kept
T10 sequence (looked up): T1 sequence with Y91S, N171S
The data set is described as above. Conditions: both partners purified.

Data set [11] deals with the molecule itself. Put plainly: turbidity (absorbance at 350 nm); His6-SUMO-tagged SAM domains, 10 µM, mixed with Zn2+ in 96-well plates (200 µl); absorbance after 10 min or every 10 s with 10 µM Zn2+; 0.5 M NaCl, 20 mM Tris/HCl pH 7.5.
Data set [12] concerns the molecule itself. The experiment in a line: dynamic light scattering; isolated SAM domains (tag cleaved), 50 µM protein and 50 µM Zn2+, 1 h at room temperature, filtered 0.22 µm.
Data set [13] deals with the molecule itself. Put plainly: crystal structure; Shank2-SAM WT (0.1 M Bis-Tris pH 5.5, 0.3 M Mg-formate) and L1800W (0.1 M Bis-Tris pH 5.5, 26% PEG 2000MME); sitting drop vapor diffusion; contacts between symmetry-related SAM domains in the crystal; no Zn2+ added.

B1: synthetic peptide of the complete PDZ ligand of GKAP (last 15 amino acids of GKAP/SAPAP1) (peptide)
peptide: ADSIEIYIPEAQTRL
notes: GKAP/SAPAP1, the last 15 amino acids (complete PDZ ligand), free N- and C-terminus; also called GKAP peptide; source: synthetic peptide (Genscript)
In general, Kd refers to the equilibrium constant for the complex coming apart. The low end stands for a tighter complex, the high end for a looser complex. For the molecule B1, the Kd was 910 nM in data set [1]; 411 nM in data set [2]; 319 nM and 320 nM in data set [3]; 22 µM and 22.5 µM in [4]; 848 nM in [5]. The “fold reduction of affinity against WT” value in data set [6] is more than 70 fold. The binding result in data set [7], in [8], in data set [9] and in data set [10] was “binds” in each case.

B2: synthetic peptide of the C-terminal PDZ ligand of CIRL1/latrophilin (peptide)
peptide: PGPDGDGQMQLVTSL
notes: CIRL1/latrophilin, C-terminal PDZ ligand (15 residues), free N- and C-terminus; also called CIRL1 peptide; source: synthetic peptide (Genscript)
Regarding B2, in data set [9], the “fold reduction of affinity against the GKAP peptide” value was approximately 40 fold.

B3: His6-SUMO-tagged Shank2-SAM domain (T1780-R1849), WT (domain or fragment, UniProt Q9UPX8-3 1780-1849, looked up)
chain: TKPVHLWTKPDVADWLESLNLGEHKEAFMDNEIDGSHLPNLQKEDLIDLGVTRVGHRMNIERALKQLLDR
notes: Shank2 SAM domain, residues T1780-R1849; numbers count on: NM_012309.5 (isoform of 1849 residues); also called SUMO-SAM fusion; WT SAM domain; source: E. coli BL21(DE3), purified (Ni-NTA agarose, G-25); not shown: His6, N-terminal, kept; SUMO, N-terminal, kept
As to B3, in [11], the binding result is given as “binds”.

B4: His6-SUMO-tagged Shank2-SAM domain (T1780-R1849), L1800W (domain or fragment, UniProt Q9UPX8-3 1780-1849, looked up)
chain: B3 chain with L21W
notes: Shank2 SAM domain, residues T1780-R1849, patient variant L1800W; numbers count on: NM_012309.5 (isoform of 1849 residues); also called L1800W mutant; p.L1800W SAM domain; source: E. coli BL21(DE3), purified (Ni-NTA agarose, G-25); not shown: His6, N-terminal, kept; SUMO, N-terminal, kept
Take B4: the binding result in data set [11] is “binds”.

B5: Shank2-SAM domain (T1780-R1849), WT, His-SUMO tag cleaved off (domain or fragment, UniProt Q9UPX8-3 1780-1849, looked up)
chain: B3 chain
notes: Shank2 SAM domain, residues T1780-R1849; numbers count on: NM_012309.5 (isoform of 1849 residues); also called SAM-WT; Shank2-SAM WT; source: E. coli BL21(DE3), purified (Ni-NTA agarose), tag cleaved with SUMO protease and removed on Ni-NTA; not shown: His6, N-terminal, cleaved; SUMO, N-terminal, cleaved
On to B5, for which, in [12], the binding result is recorded as “binds”.

B6: Shank2-SAM domain (T1780-R1849), L1800W, His-SUMO tag cleaved off (domain or fragment, UniProt Q9UPX8-3 1780-1849, looked up)
chain: B3 chain with L21W
notes: Shank2 SAM domain, residues T1780-R1849, patient variant L1800W; numbers count on: NM_012309.5 (isoform of 1849 residues); also called SAM-L1800W; L1800W mutant SAM domain; source: E. coli BL21(DE3), purified (Ni-NTA agarose), tag cleaved with SUMO protease and removed on Ni-NTA; not shown: His6, N-terminal, cleaved; SUMO, N-terminal, cleaved
As to B6, the binding result in [13] is “binds”.
